Target: casp8_human CASP8 (UniProt Q14790)
Sequence (Q14790 whole entry): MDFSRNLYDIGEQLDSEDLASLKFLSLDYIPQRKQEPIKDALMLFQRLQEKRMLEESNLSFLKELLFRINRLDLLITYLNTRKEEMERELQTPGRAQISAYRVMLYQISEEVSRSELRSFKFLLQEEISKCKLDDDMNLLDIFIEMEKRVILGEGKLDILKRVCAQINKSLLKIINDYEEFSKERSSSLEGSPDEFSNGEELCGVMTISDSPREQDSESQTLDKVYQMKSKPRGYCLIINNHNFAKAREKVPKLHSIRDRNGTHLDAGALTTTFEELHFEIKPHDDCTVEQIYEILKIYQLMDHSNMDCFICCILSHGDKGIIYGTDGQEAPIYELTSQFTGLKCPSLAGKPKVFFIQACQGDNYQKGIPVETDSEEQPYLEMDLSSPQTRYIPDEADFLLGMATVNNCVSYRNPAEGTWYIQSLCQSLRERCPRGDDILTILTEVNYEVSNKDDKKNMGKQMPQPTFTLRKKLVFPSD

Sequence of Osteopontin (Homo sapiens), P10451-1 D135A;D157A (P10451 whole entry D135A/D157A): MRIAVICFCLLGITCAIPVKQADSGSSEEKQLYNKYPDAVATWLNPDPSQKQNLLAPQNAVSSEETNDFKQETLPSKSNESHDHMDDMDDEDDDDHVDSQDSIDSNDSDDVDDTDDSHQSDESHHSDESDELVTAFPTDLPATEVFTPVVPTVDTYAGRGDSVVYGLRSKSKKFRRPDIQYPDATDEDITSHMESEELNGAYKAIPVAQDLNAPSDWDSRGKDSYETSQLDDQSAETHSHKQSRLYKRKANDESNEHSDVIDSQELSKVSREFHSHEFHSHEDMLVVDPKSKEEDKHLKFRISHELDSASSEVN

effect of a mutation on the interaction: disrupting interaction
Substance: Osteopontin (Homo sapiens), P10451-1 D135A;D157A

Source: IntAct's records for PubMed 19706414
